B1: Recombinant His-GIV-CT (C terminus of GIV/Girdin), wild type (domain or fragment)
chain: SETLESRHHKIKTGSPGSEVVTLQQFLEESNKLTSVQIKSSSQENLLDEVMKSLSVSSDFLGKDKPVSCGLARSVSGKTPGDFYDRRTTKPEFLRPGPRKTEDTYFISSAGKPTPGTQGKIKLVKESSLSRQSKDSNPYATLPRASSVISTAEGTTRRTSIHDFLTKDSRLPISVDSPPAAADSNTTAASNVDKVQESRNSKSRSREQQSS
B2: Recombinant His-Bem1p (natural protein, yeast, UniProt P29366 1-551, looked up)
chain: MLKNFKLSKRDSNGSKGRITSADISTPSHDNGSVIKHIKTVPVRYLSSSSTPVKSQRDSSPKNRHNSKDITSPEKVIKAKYSYQAQTSKELSFMEGEFFYVSGDEKDWYKASNPSTGKEGVVPKTYFEVFDRTKPSSVNGSNSSSRKVTNDSLNMGSLYAIVLYDFKAEKADELTTYVGENLFICAHHNCEWFIAKPIGRLGGPGLVPVGFVSIIDIATGYATGNDVIEDIKSVNLPTVQEWKSNIARYKASNISLGSVEQQQQQSITKPQNKSAKLVDGELLVKASVESFGLEDEKYWFLVCCELSNGKTRQLKRYYQDFYDLQVQLLDAFPAEAGKLRDAGGQWSKRIMPYIPGPVPYVTNSITKKRKEDLNIYVADLVNLPDYISRSEMVHSLFVVLNNGFDREFERDENQNNIKTLQENDTATFATASQTSNFASTNQDNTLTGEDLKLNKKLSDLSLSGSKQAPAQSTSGLKTTKIKFYYKDDIFALMLKGDTTYKELRSKIAPRIDTDNFKLQTKLFDGSGEEIKTDSQVSNIIQAKLKISVHDI

What was measured:
GST-hExo70 (human Exo70) = GST-hExo70 (human Exo70) (human, UniProt Q9UPT5 1-735); assay: pull-down
GST-hExo70 (human Exo70), sequence (Q9UPT5 whole entry): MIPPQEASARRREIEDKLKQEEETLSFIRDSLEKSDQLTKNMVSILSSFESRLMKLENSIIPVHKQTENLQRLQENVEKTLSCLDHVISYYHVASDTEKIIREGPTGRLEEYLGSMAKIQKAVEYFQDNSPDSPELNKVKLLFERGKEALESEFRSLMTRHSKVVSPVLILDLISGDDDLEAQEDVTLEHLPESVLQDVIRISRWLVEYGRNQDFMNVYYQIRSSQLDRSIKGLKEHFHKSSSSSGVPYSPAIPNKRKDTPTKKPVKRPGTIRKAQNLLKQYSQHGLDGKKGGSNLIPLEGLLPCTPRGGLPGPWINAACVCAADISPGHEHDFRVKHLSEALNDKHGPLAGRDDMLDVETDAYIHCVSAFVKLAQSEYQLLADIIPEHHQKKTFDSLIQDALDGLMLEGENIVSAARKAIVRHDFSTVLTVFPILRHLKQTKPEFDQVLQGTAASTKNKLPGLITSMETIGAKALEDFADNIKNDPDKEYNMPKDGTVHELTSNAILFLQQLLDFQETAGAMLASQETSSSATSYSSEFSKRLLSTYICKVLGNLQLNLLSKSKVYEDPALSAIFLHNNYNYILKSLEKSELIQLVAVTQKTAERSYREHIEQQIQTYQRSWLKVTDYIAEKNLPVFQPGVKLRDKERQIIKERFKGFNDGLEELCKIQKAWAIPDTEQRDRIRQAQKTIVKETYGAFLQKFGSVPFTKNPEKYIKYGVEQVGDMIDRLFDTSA

GST-Exo70p (yeast Exo70) = GST-Exo70p (yeast Exo70) (yeast, UniProt P19658 1-623); assay: pull-down
GST-Exo70p (yeast Exo70), sequence (P19658 whole entry): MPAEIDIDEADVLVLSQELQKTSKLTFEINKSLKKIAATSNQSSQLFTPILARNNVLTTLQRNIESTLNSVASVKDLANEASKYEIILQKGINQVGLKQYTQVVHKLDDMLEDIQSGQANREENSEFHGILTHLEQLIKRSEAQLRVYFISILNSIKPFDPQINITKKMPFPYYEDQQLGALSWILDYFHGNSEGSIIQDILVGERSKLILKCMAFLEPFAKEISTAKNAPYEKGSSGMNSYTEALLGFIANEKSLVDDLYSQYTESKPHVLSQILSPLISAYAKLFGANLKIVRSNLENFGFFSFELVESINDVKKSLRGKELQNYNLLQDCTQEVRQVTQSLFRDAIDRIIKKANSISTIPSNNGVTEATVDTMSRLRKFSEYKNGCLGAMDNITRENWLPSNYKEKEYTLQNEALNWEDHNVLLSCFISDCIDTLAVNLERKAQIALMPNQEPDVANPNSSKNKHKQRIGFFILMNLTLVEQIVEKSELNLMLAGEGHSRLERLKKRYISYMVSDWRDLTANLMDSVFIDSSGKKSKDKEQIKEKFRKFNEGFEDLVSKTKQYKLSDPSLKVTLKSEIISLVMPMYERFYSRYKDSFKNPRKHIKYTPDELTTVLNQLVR

Binder	fold binding against yeast Exo70p (GST-hExo70 (human Exo70)) [fold]	fold binding against human Exo70 (GST-Exo70p (yeast Exo70)) [fold]
B1	4	–
B2	–	2
